# B1: A9 (ssRNA)
# RNA: GGGAGGACGAUGCGGACCGAAAAAGACCUGACUUCUAUACUAAGUCUACGUUCCCAGACGACUCGCCCGA
# modifications: 2'-F pyrimidines
# How the values were obtained:
# [1] = target: T1, PSMA (prostate specific membrane antigen) (Homo sapiens, UniProt Q04609 Q04609:44-750); experiment: inhibition; NAALADase; 1 mM CoCl2, 37 C; settings: tags: R&D Systems 4234-ZN-010; chain copies: 2
# Description: Refolding was accomplished by heating at 65° C. for 10 minutes, followed by cooling to 37° C. for 10 minutes. A volume of 120 μL of refolded RNA in binding buffer was added to an Eppendorf tube, was combined with 40 μL of 200 mM Tris buffer, pH 7.5, and 20 μL 10 mM CoCl₂ (final concentrations in the reaction 40 mM and 1 mM, respectively). Cobalt (II) chloride was reported to be a “stimulator of enzymatic activity” in the original NAALADase assay protocol (Xiao, Z., et al., (2000) Generation of a baculovirus recombinant prostate-specific membrane antigen and its use in the development of a novel protein biochip quantitative immunoassay. Protein Expr Purif, 19, 12-21). When this compound was omitted from the reaction, we observed increased non-specific RNA interactions. Two micrograms in 2 μL of recombinant human PSMA (4234-ZN-010) from R&D Systems (Minneapolis, Minn.) was diluted in 500 μL of 50 mM pH 7.5 Tris buffer. Ten microliters of the PSMA solution (40 ng PSMA) was added to the reaction mix, and the reaction was incubated for 5 minutes at 37° C. to promote RNA-PSMA interaction. For the experiment shown in FIG. 1A, recombinant, purified human PSMA was obtained courtesy of Dr. David Spencer (Baylor College of Medicine, Houston, Tex.). […]
# AG 1-X8 formate resin (200-400 mesh) columns from Bio-Rad (731-6221) were used to quantitate the [³H]-glutamate reaction product. […]
# [2] = target: T1, PSMA (prostate specific membrane …); experiment: filter; 37 C; settings: tags: R&D Systems 4234-ZN-010; chain copies: 2
# Description: FIGS. 3A-3B. Binding of A9 and A9g to human PSMA. (A) A saturation filter binding assay was used to measure binding of A9 and A9g to recombinant human PSMA protein. […] The fraction bound was normalized to the Bₘₐₓ (maximal binding capacity) of A9. (B) Measurement of the binding affinity of A9g for recombinant human PSMA protein by surface plasmon resonance (SPR, BIACore). The data were fit to a 1:1 binding with mass transfer model. […] The on-rate (kₐ) was 1.15×10⁴ M⁻¹·S⁻¹ and the off-rate (kd) was 5.7×10⁻⁵ s⁻¹.
# Filter binding assays were performed as previously described (Wong, I. and Lohman, T. M. (1993) A double-filter method for nitrocellulose-filter binding: application to protein-nucleic acid interactions. Prac Natl Acad Sci USA, 90, 5428-5432). Briefly, aptamers were 5′-end labeled with ³²P using PNK. RNA was incubated for 5 minutes with various concentrations of purified, recombinant human PSMA (4234-ZN-010) obtained from R&D Systems at 37° C. The reaction mixture was spotted onto a sandwich of nitrocellulose (Protran BA 83, 0.2 μm pore size, 10 402 488, Whatman), nylon (Zeta-Probe Blotting Membranes, 162-0153, Bio-Rad), and Whatman 3MM chromatography paper (3130-6189) assembled in a dot-blot apparatus. […] The ratio of bound:unbound RNA was calculated by exposing the filters to a storage phosphor screen and imaging with a phosphorimager.
# [3] = target: T1, PSMA (prostate specific membrane …); experiment: inhibition; NAALADase of membrane extract; settings: protein: extract; tags: membrane extract of PC-3 (PSMA+) cells stably expressing human PSMA; chain copies: 2
# [4] = target: T1, PSMA (prostate specific membrane …); experiment: cell_activity; transwell migration; settings: tags: PSMA-expressing cells, migration and invasion assays; chain copies: 2
# [5] = target: T1, PSMA (prostate specific membrane …); experiment: SPR; 1:1 with mass transfer; range 5-30 nM in triplicate; 20 mM HEPES pH 7.4, 150 mM NaCl, 2 mM CaCl2; settings: tags: R&D Systems 4234-ZN-010; chain copies: 2; label: 5'-biotin-spacer9-G
# Description: The data were fit to a 1:1 binding with mass transfer model. […] The on-rate (kₐ) was 1.15×10⁴ M⁻¹·S⁻¹ and the off-rate (kd) was 5.7×10⁻⁵ s⁻¹.
# Surface Plasmon Resonance (SPR) measurements were carried out using a BIACore 3000 device. 5′-biotinylated RNA was generated by transcription and gel purification as described above, except the transcription reactions were carried out in the presence of 3 mM biotin-G (Custom order from TriLink Biotechnologies, San Diego, Calif.: 5′-(Biotin) (Spacer 9) G-3′). The biotinylated RNA was immobilized on a streptavidin-coated Biacore chip (Sensor Chip SA, 13R-1003-98, General Electric Company) by injection in binding buffer at a concentration of 25 μg/mL (20 mM HEPES, pH 7.4, 150 mM NaCl, 2 mM CaCl₂). The RNA was refolded by heating to 65° C. followed by cooling to 37° C. prior to immobilization. […]
# The NAALADase activity assay provides an indirect measurement of the interaction of the PSMA aptamers with PSMA. […] As determined by the filter binding assay, the A9g aptamer retains the same binding profile as the full-length A9 (FIG. 3A). […] After the injection was halted, the rate of dissociation (koff) was measured. By repeating these measurements at various analyte (PSMA) concentrations, an accurate estimation of binding was determined (KD=koff/Kₒₙ).
# [6] = target: T2, BSA (bovine serum albumin) (UniProt P02769 P02769:25-607); experiment: SPR; no appreciable interaction; specificity control; settings: label: 5'-biotin-spacer9-G
# T2 sequence (P02769 25-607, one chain of several): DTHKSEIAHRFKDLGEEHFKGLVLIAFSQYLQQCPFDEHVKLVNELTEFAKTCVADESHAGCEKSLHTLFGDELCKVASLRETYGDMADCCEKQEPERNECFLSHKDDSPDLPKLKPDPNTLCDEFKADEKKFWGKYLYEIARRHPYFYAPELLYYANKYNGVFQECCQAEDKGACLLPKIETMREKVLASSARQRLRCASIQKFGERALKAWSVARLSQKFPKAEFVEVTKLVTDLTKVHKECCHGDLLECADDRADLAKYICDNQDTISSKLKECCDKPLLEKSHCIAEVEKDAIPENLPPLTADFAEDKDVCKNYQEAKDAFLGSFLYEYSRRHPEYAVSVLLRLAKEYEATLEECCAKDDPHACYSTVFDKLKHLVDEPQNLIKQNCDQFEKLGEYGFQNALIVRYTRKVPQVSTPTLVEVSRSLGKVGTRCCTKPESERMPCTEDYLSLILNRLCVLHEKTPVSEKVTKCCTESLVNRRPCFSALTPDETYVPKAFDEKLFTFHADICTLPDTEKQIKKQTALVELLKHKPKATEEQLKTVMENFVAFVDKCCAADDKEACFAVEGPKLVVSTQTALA
# Description: (§1) Surface Plasmon Resonance (SPR) measurements were carried out using a BIACore 3000 device. 5′-biotinylated RNA was generated by transcription and gel purification as described above, except the transcription reactions were carried out in the presence of 3 mM biotin-G (Custom order from TriLink Biotechnologies, San Diego, Calif.: 5′-(Biotin) (Spacer 9) G-3′). The biotinylated RNA was immobilized on a streptavidin-coated Biacore chip (Sensor Chip SA, 13R-1003-98, General Electric Company) by injection in binding buffer at a concentration of 25 μg/mL (20 mM HEPES, pH 7.4, 150 mM NaCl, 2 mM CaCl₂). The RNA was refolded by heating to 65° C. followed by cooling to 37° C. prior to immobilization. To measure binding kinetics, fixed concentrations of purified protein were injected over the chip using the “KINJECT” function at a flow rate of 15 μL/min. After binding, the chip was regenerated by injecting 50 mM NaOH with the “QUICKINJECT” function. […]
# (§2) Binding specificity of the A9g aptamer for PSMA was determined using SPR/BIACore (FIG. 4D; left panel). Binding specificity was assessed by comparing the kₒₙ, and koff rates of A9g for recombinant PSMA protein (target) to the Kₒₙ, and koff rates of A9g for non-target proteins (BSA and HER2). […] No appreciable interaction between A9g and the non-target proteins (BSA and HER2) was measured (FIG. 4D; left panel). […]
# [7] = target: T2, BSA (bovine serum albumin); experiment: SPR; no measurable binding; settings: label: 5'-biotin-spacer9-G
# Description: as §1, §2
# [8] = target: T1, PSMA (prostate specific membrane …); experiment: SPR; lack of binding; settings: tags: R&D Systems 4234-ZN-010; chain copies: 2; label: 5'-biotin-spacer9-G
# Description: as §1, §2
# [9] = target: T1, PSMA (prostate specific membrane …); experiment: cell_activity; transwell migration; invasion IC50 75 nM (FIG. 15C); settings: tags: PSMA-expressing cells, migration and invasion assays; chain copies: 2
# [10] = target: T1, PSMA (prostate specific membrane …); experiment: 32P-labeled RNA on cells, on ice; settings: tags: 22Rv1 (1.7) prostate cancer cells; chain copies: 2
# Description: One day prior to the binding assay, cells were plated in a 24-well plate at a density of approximately 100,000 cells per well. All subsequent procedures were performed on ice to prevent aptamer internalization. Prior to binding, each well was washed twice with 1 ml of ice-cold Dulbecco's phosphate-buffered saline in the absence of divalent cations (DPBS −/−) to remove growth media. Aptamers were 5′ end-labeled with ³²P using PNK from New England Biolabs as previously described (McNamara, J. O., et al., (2008) Multivalent 4-1BB binding aptamers costimulate CD8+ T cells and inhibit tumor growth in mice. J Clin Invest, 118, 376-386). The concentration of ³²P-radiolabeled aptamer was measured with UV-visible absorption spectroscopy, and serial dilutions ranging from 1000 nM to 30 nM were performed. To measure non-specific binding, serial dilutions were also made containing a high fixed concentration of non-radiolabeled A9g aptamer, at 10 μM. […] Bound RNA was collected by washing with 0.5 ml of 0.5 N NaOH which was added to 3 ml of scintillation fluid, and activity was measured. For each dilution, specific binding was calculated by subtracting the activity of the sample with a high concentration of non-radiolabeled (“cold”) aptamer added (i.e., non-specific binding) from the sample without cold aptamer added (i.e., total binding). […]
# [11] = target: T1, PSMA (prostate specific membrane …); experiment: filter; Bmax severely diminished; settings: tags: R&D Systems 4234-ZN-010; chain copies: 2
# Description: FIGS. 4A-4D. Characterization of A9g binding to PSMA. (A) Secondary structural predictions of truncated A9 aptamers generated using the RNAStructure 4.6 algorithm. Base changes are denoted by an asterisk (*). Base changes were introduced in an attempt to either retain the predicted secondary structure (A9g.1 and A9g.2) or disrupt various secondary structural elements (A9g.3-A9g.6) of A9g. Two secondary structure predictions were given for the A9g.4 sequence, denoted by A9g.4a and A9g.4b. (B) Effect of A9g aptamer derivatives (A9g.1 through A9g.6) on PSMA NAALADase inhibitor activity. NAALADase activity was measured and normalized as in FIG. 1. (C) Saturation filter binding assay of A9g aptamer and A9g aptamer derivatives (A9g.3-A9g.6). (D) Binding of A9g to recombinant human PSMA, recombinant rat HER2 (rHER2), and BSA using BIACore (left panel). Binding of A9g.6 to recombinant human PSMA, recombinant rat HER2 (rHER2), and BSA using BIACore (right panel).
# Filter binding assays were performed as previously described (Wong, I. and Lohman, T. M. (1993) A double-filter method for nitrocellulose-filter binding: application to protein-nucleic acid interactions. Prac Natl Acad Sci USA, 90, 5428-5432). Briefly, aptamers were 5′-end labeled with ³²P using PNK. RNA was incubated for 5 minutes with various concentrations of purified, recombinant human PSMA (4234-ZN-010) obtained from R&D Systems at 37° C. The reaction mixture was spotted onto a sandwich of nitrocellulose (Protran BA 83, 0.2 μm pore size, 10 402 488, Whatman), nylon (Zeta-Probe Blotting Membranes, 162-0153, Bio-Rad), and Whatman 3MM chromatography paper (3130-6189) assembled in a dot-blot apparatus. Bound RNA was captured on the nitrocellulose filter, while unbound RNA was captured on the nylon filter. The ratio of bound:unbound RNA was calculated by exposing the filters to a storage phosphor screen and imaging with a phosphorimager.
# T1 sequence (Q04609 44-750, one chain of several): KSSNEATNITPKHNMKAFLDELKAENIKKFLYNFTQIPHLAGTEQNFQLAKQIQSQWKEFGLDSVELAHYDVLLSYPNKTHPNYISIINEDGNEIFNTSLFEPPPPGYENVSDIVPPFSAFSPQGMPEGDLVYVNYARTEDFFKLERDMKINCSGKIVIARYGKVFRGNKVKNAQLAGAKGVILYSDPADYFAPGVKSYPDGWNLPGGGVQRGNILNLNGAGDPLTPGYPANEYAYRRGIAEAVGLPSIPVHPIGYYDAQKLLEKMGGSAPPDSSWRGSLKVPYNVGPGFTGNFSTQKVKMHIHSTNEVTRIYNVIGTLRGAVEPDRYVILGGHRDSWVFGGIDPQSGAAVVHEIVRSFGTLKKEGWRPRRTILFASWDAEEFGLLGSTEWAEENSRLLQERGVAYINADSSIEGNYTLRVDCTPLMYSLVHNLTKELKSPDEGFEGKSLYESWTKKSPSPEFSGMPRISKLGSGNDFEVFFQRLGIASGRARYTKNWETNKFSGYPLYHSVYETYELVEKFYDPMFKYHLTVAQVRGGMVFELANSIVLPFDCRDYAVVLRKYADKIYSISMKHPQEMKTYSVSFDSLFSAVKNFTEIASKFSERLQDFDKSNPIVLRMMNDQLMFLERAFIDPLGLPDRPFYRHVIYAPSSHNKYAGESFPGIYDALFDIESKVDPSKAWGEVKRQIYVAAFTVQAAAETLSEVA
binder,measurement,setting,value
B1,IC50,[1],~10 nM
same,Kd,[2],110 nM
same,IC50,[3],267 nM
same,IC50,[4],81 nM
"GGGACCGAAAAAGACCUGACUUCUAUACUAAGUCUACGUUCCC (ssRNA, 2'-F pyrimidines) [A9g 5'-biotin]",Kd,[5],5 nM
same,binding result,[6],no binding
"GGGACCGAAAAAGACCUGGCUUCUAUACUAAGUCUACGUUCCC (ssRNA, 2'-F pyrimidines) [A9g.6 5'-biotin]",binding result,[7],no binding
same,binding result,[8],no binding
"GGGACCGAAAAAGACCUGACUUCUAUACUAAGUCUACGUUCCC (ssRNA, 2'-F pyrimidines) [A9g]",IC50,[9],18 nM
same,binding signal,[10],~2 fold binding capacity vs PSMA-negative PC-3
same,IC50,[1],~10 nM
same,Kd,[2],130 nM
same,IC50,[3],290 nM
"GGGACCGAAAAAGACCUGACUUCUAUACUAAGUCUACGGUCCC (ssRNA, 2'-F pyrimidines) [A9g.3 (U39G)]",binding result,[11],no binding
"GGGACCGAAAAAGACCUGACUUCUAUACUAGGUCUACGUUCCC (ssRNA, 2'-F pyrimidines) [A9g.5]",binding result,[11],no binding
"GGGACCGAAAAAGACCUGGCUUCUAUACUAAGUCUACGUUCCC (ssRNA, 2'-F pyrimidines) [A9g.6]",binding result,[11],no binding
